Reference: PMC7154664 (Angewandte Chemie (International Ed. in English), 2020)
Positions count from the first letter of the chain named. Numbers in names are those of the source.

Legend:
[1] = target: T1, YciA (Escherichia coli, UniProt P0A8Z0); assay: thioesterase activity assay; type: biochemical; conditions: racemic mandelyl-CoA 0.5 mM, YciA 2 μM
T1 sequence (P0A8Z0 1-132): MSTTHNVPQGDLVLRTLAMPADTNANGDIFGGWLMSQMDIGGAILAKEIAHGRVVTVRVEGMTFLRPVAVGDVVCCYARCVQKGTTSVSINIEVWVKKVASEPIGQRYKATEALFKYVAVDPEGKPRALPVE

[2] = target: HACLHs (Homo sapiens, UniProt Q9UJ83); assay: carboligation, LC-MS product analysis after […] h; type: biochemical; conditions: formyl-CoA 1 mM as C1 donor, aldehyde 10 mM, enzyme 5 μM
Sequence of HACLHs (Q9UJ83 whole entry): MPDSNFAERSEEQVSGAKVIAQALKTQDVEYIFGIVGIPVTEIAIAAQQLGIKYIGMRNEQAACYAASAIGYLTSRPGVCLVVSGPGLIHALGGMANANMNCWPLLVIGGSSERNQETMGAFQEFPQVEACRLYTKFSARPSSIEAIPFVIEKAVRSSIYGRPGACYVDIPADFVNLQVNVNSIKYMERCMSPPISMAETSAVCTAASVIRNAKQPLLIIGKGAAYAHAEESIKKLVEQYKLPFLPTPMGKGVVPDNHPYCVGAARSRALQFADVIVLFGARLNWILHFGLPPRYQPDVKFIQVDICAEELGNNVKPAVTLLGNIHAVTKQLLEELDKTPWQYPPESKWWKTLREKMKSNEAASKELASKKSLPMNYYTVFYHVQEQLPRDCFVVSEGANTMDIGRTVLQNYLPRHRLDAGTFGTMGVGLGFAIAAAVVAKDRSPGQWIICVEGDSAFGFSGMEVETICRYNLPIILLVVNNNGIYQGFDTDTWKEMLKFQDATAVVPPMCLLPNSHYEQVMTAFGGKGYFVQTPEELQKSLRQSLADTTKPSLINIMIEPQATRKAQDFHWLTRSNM

[3] = substrate: CC(C)(COP(=O)(O)OP(=O)(O)OC[C@H]1O[C@@H](n2cnc3c(N)ncnc32)[C@H](O)[C@@H]1OP(=O)(O)O)[C@@H](O)C(=O)NCCC(=O)NCCSC(=O)C(=O)O; assay: purified protein; conditions: decarboxylation to formyl-CoA; ThDP-dependent

`CC(C)(COP(=O)(O)OP(=O)(O)OC[C@H]1O[C@@H](n2cnc3c(N)ncnc32)[C@H](O)[C@@H]1OP(=O)(O)O)[C@@H](O)C(=O)NCCC(=O)NCCSC(=O)C(O)c1ccccc1` (stereo partly drawn) [mandelyl‐CoA] was tested, and the thioesterase activity assay [1] was “YciA showed relatively high mandelyl‐CoA thioesterase activity”.

`CC(C)(COP(=O)(O)OP(=O)(O)OC[C@H]1O[C@@H](n2cnc3c(N)ncnc32)[C@H](O)[C@@H]1OP(=O)(O)O)[C@@H](O)C(=O)NCCC(=O)NCCSC=O` [formyl‐CoA] was tested, and the “carboligation, LC-MS product analysis after 1 h” value [2] was “HACLHs and OXCMe are able to perform nucleophilic C1‐extension reactions of different aldehydes with formyl‐CoA”.

B1: OXCMe (Methylorubrum extorquens AM1) (protein)
chain: MTVQAQNIDAITAGAMPHEEPELTDGFHLVIDALKLNGIETIYNVPGIPITDLGRLAQAEGLRVISFRHEQNAGNAAAIAGFLTKKPGICLTVSAPGFLNGLTALANATTNCFPMILISGSSEREIVDLQQGDYEEMDQLAIAKPLCKAAFRVLHAADIGIGVARAIRAAVSGRPGGVYLDLPAKLFSQVIDADLGARSLVKVIDAAPAQLPAPAAIARALDVLKSAERPLIILGKGAAYAQADEAVRALVEESGIPYVPMSMAKGLLPDTHPLSAGAARSTALKDSDVVLLVGARLNWLLSHGKGKTWGEPGSKRFIQIDIEPREMDSNVEIVAPVVGDIGSCVEALLDGIRKDWKGAPSNWLETLRGKREANIAKMAPKLMKNSSPMCFHSALGALRTVIKERPDAILVNEGANTLDLARGIIDMYQPRKRLDVGTWGVMGIGMGFAVAAAVETGKPVLAVEGDSAFGFSGMEVETICRYELPVCIVIFNNNGIYRGTDTDPTGRDPGTTVFVKNSRYDKMMEAFGGVGVNVTTPDELKRAVDEAMNSGKPTLINAEIDPAAGSESGNIGSLNPQSTLKKK
For B1, the Km [3] was 105 ± 11 µM, the kcat [3] was 98 ± 3 s⁻¹ and the kcat/Km [3] was 930000 M⁻¹ s⁻¹.

B2: OXCMe (Methylorubrum extorquens AM1; S568A) (protein)
chain: B1 chain with S568A
With B2 the Km [3] was 23 ± 2 µM.

B3: OXCMe (Methylorubrum extorquens AM1; Y497A) (protein)
chain: B1 chain with Y497A
Molecule B3 has a Km [3] of 180 ± 17 µM, a kcat [3] of 1.32 ± 0.04 s⁻¹ and a kcat/Km [3] of 7300 M⁻¹ s⁻¹.

B4: OXCMe (Methylorubrum extorquens AM1; S568A/Y497A) (protein)
chain: B1 chain with Y497A, S568A
Work on B4 yielded a Km [3] of 103 ± 15 µM, a kcat [3] of 0.32 ± 0.01 s⁻¹ and a kcat/Km [3] of 3100 M⁻¹ s⁻¹.
